Assays:
[1] = Far-UV circular dichroism spectroscopy; format: physicochemical; conditions: protein 1 μM, far-UV CD 200–300 nm
Protocol: Fig. 3 Mutation induced conformational changes in HpMutS2. a CD-spectroscopy of HpMutS2, HpMutS2-G338R, and HpMutS2-E413A. Far-UV CD spectra of proteins (1 μM) dialyzed in 50 mM Tris-Cl and 100 mM NaCl were recorded between 200–300 nm with 20 mdeg sensitivity at a scan speed of 50 nm using 2 mm path length cuvette with a bandwidth of 2 nm. The spectra were recorded using Jasco-815 spectropolarimeter. Size exclusion chromatographic analysis of b HpMutS2, c HpMutS2-G338R, and d HpMutS2-E413A was performed using Superose-6 gel filtration column at a constant flow rate of 0.3 ml/min. Approximately 150 μg of all the proteins were spun at 10,000 rpm for 10 min at 4 °C before injection. The absorbance was recorded at 280 nm
Freshly prepared proteins were dialyzed twice in buffer B for 4–6 h with at least two changes of the buffer. Far-UV CD spectra of proteins (1 μM) were obtained using a Jasco-815 spectropolarimeter equipped with a Peltier stage (Japan Spectroscopic Co., Japan) at 25 °C. The spectra were recorded between 200–300 nm with 20 mdeg sensitivity at a scan speed of 50 nm using 2 mm path length cuvette with a bandwidth of 2 nm. […] Thermal denaturation of the proteins was monitored at single wavelength (222 nm) by increasing temperature from 25 °C-80 °C. The percentage of unfolded protein was calculated by considering the protein at 25 °C as 100 % folded.

[2] = molecular target: the molecule itself; test: SEC; Superose-6 HR 10/30, buffer B (50 mM Tris pH 8.0, 100 mM NaCl), 0.3 ml/min, approximately 150 ug protein injected; mass from a plot of Ve/Vo versus log of molecular mass of standards
[3] = tested on: H. pylori strain 26695; test: Recombination assay (incorporation of streptomycin resistant chromosomal DNA); format: cell-based, Helicobacter pylori; conditions: for fold higher recombination / transformation frequency than the wild-type strain: HpMutS2-E413A over-expressed in the wild-type strain
Protocol: The construction of hpmutS2-disrupted strain, complements, and calculations of recombination frequencies were performed as described in [7]. Briefly, H. pylori strain 26695 was used to disrupt hpmutS2 gene by allelic replacement using a chloramphenicol resistance cassette and to generate integrations. The wild-type and mutants of HpMutS2 preceded by ureA promoter and containing an apramycin resistance cassette were integrated into a non-essential ureA locus. The correct constructions were verified by PCR and the expression of proteins was monitored by Western blots. Recombination frequencies were determined by rate of incorporation of streptomycin resistant isogenic total chromosomal DNA (200 ng) per cfu. P values were calculated using the Mann–Whitney U test. At least two independent clones of each construction were used to determine the recombination frequencies. All DNA constructs were introduced using natural transformation. H. pylori was grown on BAB plates at 37 °C under microaerophillic conditions.

| Molecule | reduced negative ellipticity compared to the wild-type protein [1] | binding result [2] | fold higher recombination / transformation frequency than the wild-type strain [3] | Relative value (recombinant frequency relative to Wt) ([3]; Wt = 1) | Recombinant frequency ([3]; streptomycin resistance colonies per recipient cfu, average (±standard deviation)) |
| --- | --- | --- | --- | --- | --- |
| HpMutS2-E413A (enzyme, also called Walker-B mutant) MSDAPKRSLNPTLMMNNNNTPPKPLEESLDLKEFIALFKTFFAKERDTIALENDLKQTFTYLNEVDAIGLPTPKSVKESDLIIIKLTKLGTLHLDEIFEIVKRLHYIVVLQNAFKTFTHLKFHERLNAIVLPPFFNDLIALFDDEGKIKQGANATLDALNESLNRLKKESVKIIHHYARSKELAPYLVDTQSHLKHGYECLLLKSGFSGAIKGVVLERSANGYFYLLPESAQKIAQKIAQIGNEIDCCIVEMCQTLSHSLQKHLLFLKFLFKEFDFLDSLQARLNFAKAYNLEFVMPSFTQKKMILENFSHPILKEPKPLNLKFEKSMLAVTGVNAGGKTMLLKSLLSAAFLSKHLIPMKINAHHSIIPYFKEIHAIINDPQNSANNISTFAGRMKQFSALLSKENMLLGVDAIELGTDADEASSLYKTLLEKLLKQNNQIIITTHHKRLSVLMAENKEVELLAALYDEEKERPTYTFLKGVIGKSYAFETALRYGVPHFLIEKAKTFYGEDKEKLNVLIENSSALERELKQKNEHLENALKEQEYLKNAWLLEMEKQKEIFHNKKLELEKSYQQALNILKSEVASKDTSSMHKEIHKASEILSKHKTNQEIPQIITNFQANEKARYKNESVLIVQILDKGYYWIETELGMRLKAHGSLLKKIQKPPKNKFKPPKTTIPKPKEASLRLDLRGQRSEEALDLLDAFLNDALLGGFEEVLICHGKGSGILEKFVKEFLKNHPKVVSFSDAPINLGGSGVKIVKL | 30–34% | binds | ~ 5 fold | – | – |
| HpMutS2: Helicobacter pylori MutS2 (1-762), C-terminally His6-tagged wild-type protein, nuclease and ABC ATPase (protein, left off: His6, C-terminal, state not stated, Helicobacter pylori MutS2 (1-762), C-terminally His6-tagged wild-type protein, nuclease and ABC ATPase) MSDAPKRSLNPTLMMNNNNTPPKPLEESLDLKEFIALFKTFFAKERDTIALENDLKQTFTYLNEVDAIGLPTPKSVKESDLIIIKLTKLGTLHLDEIFEIVKRLHYIVVLQNAFKTFTHLKFHERLNAIVLPPFFNDLIALFDDEGKIKQGANATLDALNESLNRLKKESVKIIHHYARSKELAPYLVDTQSHLKHGYECLLLKSGFSGAIKGVVLERSANGYFYLLPESAQKIAQKIAQIGNEIDCCIVEMCQTLSHSLQKHLLFLKFLFKEFDFLDSLQARLNFAKAYNLEFVMPSFTQKKMILENFSHPILKEPKPLNLKFEKSMLAVTGVNAGGKTMLLKSLLSAAFLSKHLIPMKINAHHSIIPYFKEIHAIINDPQNSANNISTFAGRMKQFSALLSKENMLLGVDEIELGTDADEASSLYKTLLEKLLKQNNQIIITTHHKRLSVLMAENKEVELLAALYDEEKERPTYTFLKGVIGKSYAFETALRYGVPHFLIEKAKTFYGEDKEKLNVLIENSSALERELKQKNEHLENALKEQEYLKNAWLLEMEKQKEIFHNKKLELEKSYQQALNILKSEVASKDTSSMHKEIHKASEILSKHKTNQEIPQIITNFQANEKARYKNESVLIVQILDKGYYWIETELGMRLKAHGSLLKKIQKPPKNKFKPPKTTIPKPKEASLRLDLRGQRSEEALDLLDAFLNDALLGGFEEVLICHGKGSGILEKFVKEFLKNHPKVVSFSDAPINLGGSGVKIVKL | – | – | ~ 8 fold | 7.9 | 39.2 (±29.2) x10^−4 |
| HpMutS2-G338R (protein) MSDAPKRSLNPTLMMNNNNTPPKPLEESLDLKEFIALFKTFFAKERDTIALENDLKQTFTYLNEVDAIGLPTPKSVKESDLIIIKLTKLGTLHLDEIFEIVKRLHYIVVLQNAFKTFTHLKFHERLNAIVLPPFFNDLIALFDDEGKIKQGANATLDALNESLNRLKKESVKIIHHYARSKELAPYLVDTQSHLKHGYECLLLKSGFSGAIKGVVLERSANGYFYLLPESAQKIAQKIAQIGNEIDCCIVEMCQTLSHSLQKHLLFLKFLFKEFDFLDSLQARLNFAKAYNLEFVMPSFTQKKMILENFSHPILKEPKPLNLKFEKSMLAVTGVNAGRKTMLLKSLLSAAFLSKHLIPMKINAHHSIIPYFKEIHAIINDPQNSANNISTFAGRMKQFSALLSKENMLLGVDEIELGTDADEASSLYKTLLEKLLKQNNQIIITTHHKRLSVLMAENKEVELLAALYDEEKERPTYTFLKGVIGKSYAFETALRYGVPHFLIEKAKTFYGEDKEKLNVLIENSSALERELKQKNEHLENALKEQEYLKNAWLLEMEKQKEIFHNKKLELEKSYQQALNILKSEVASKDTSSMHKEIHKASEILSKHKTNQEIPQIITNFQANEKARYKNESVLIVQILDKGYYWIETELGMRLKAHGSLLKKIQKPPKNKFKPPKTTIPKPKEASLRLDLRGQRSEEALDLLDAFLNDALLGGFEEVLICHGKGSGILEKFVKEFLKNHPKVVSFSDAPINLGGSGVKIVKL | no significant changes | – | – | – | – |

Reference: article PMC4739419, “Mutations in the nucleotide binding and hydrolysis domains of Helicobacter pylori MutS2 lead to altered biochemical activities and inactivation of its in vivo function” (BMC Microbiology, 2016)
